Experimental data as given in US20110086770A1 (ANAPHORE, published 2011).

T1: recombinant human IL-23R/Fc chimera (R&D Systems) (human, UniProt Q5VWK5 24-353)
T1 construct: bought; also called human IL-23R/Fc fusion protein; rhIL23RFc
T1 sequence (looked up): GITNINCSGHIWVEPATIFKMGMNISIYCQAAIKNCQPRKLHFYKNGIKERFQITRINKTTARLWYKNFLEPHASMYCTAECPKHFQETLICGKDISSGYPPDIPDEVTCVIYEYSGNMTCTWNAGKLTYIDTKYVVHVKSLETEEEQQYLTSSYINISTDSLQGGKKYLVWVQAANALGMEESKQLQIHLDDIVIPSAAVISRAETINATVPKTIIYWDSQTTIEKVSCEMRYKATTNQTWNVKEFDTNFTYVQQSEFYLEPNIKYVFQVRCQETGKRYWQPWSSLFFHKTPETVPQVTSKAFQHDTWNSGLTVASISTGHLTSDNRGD


biological target: T1, recombinant human IL-23R/Fc chimera …; assay: competition ELISA against IL-23
Method: Assays were performed generally as follows. Individual wells in Immulon HB2 plates were incubated overnight at 4° C. with 100 μL PBS containing 100 ng of an anti-human IgG Fc (R&D MAB 110 clone 97924). Plates were washed five times with PBS/0.05% Tween 20, and wells were incubated for 1.5 h at RT with 100 μL each of PBS containing 50 ng of recombinant human IL-23R/Fc. […] Competitor was included at a final concentration of 1 μg/mL. After incubation, plates were washed as described and wells were incubated for 40 min at RT with 100 μL each of PBS containing a 1:5000 dilution of streptavidin-HRP conjugate (Pierce catalog no. 21130). After washing, wells were incubated with 100 μL each of TMB (BioFX Lab catalog no. TMBH-1000-0) for up to 30 min at RT. Reactions were stopped with an equal volume of 0.2 M sulfuric acid.

| Ratio IC50 to 056-53.H4E IC50 [ratio] | Binder |
| --- | --- |
| 1.6 | 101-51-1A3 ATRIMER (designed binder, ATRIMER is a homotrimer; one protomer is given., not shown: C-terminal purification tag: Myc/His6 (pANA4) or HA-StrepII (pANA10)) EPPTQKPKKIVNAKKDVVNTKMFEELKSRLDTLAQEVALLKEQQALQTVCLKGTKVHMKCFLAFTQTKTFHEASEDCISRGGTLSTPQTGSENDALYEYLRQSVGNEAEIWLGLNGSALTNTWVDMTGARIAYKNWEHQPVYQPGGGWGVFGENCAVLSGAANGKWFDKRCRDQLPYICQFGIV |
| 1.1 | 101-54-4A12 ATRIMER (designed binder) EPPTQKPKKIVNAKKDVVNTKMFEELKSRLDTLAQEVALLKEQQALQTVCLKGTKVHMKCFLAFTQTKTFHEASEDCISRGGTLSTPQTGSENDALYEYLRQSVGNEAEIWLGLNGSRRSGVWVDMTGARIAYKNWEPPGPAHPQGGFGVFGENCAVLSGAANGKWFDKRCRDQLPYICQFGIV |
| 3.7 | 101-51-1A8 ATRIMER (designed binder, ATRIMER is a homotrimer; one protomer is given., not shown: C-terminal purification tag: Myc/His6 (pANA4) or HA-StrepII (pANA10)) EPPTQKPKKIVNAKKDVVNTKMFEELKSRLDTLAQEVALLKEQQALQTVCLKGTKVHMKCFLAFTQTKTFHEASEDCISRGGTLSTPQTGSENDALYEYLRQSVGNEAEIWLGLNGSALTNTWVDMTGARIAYKNWERTPPWQPEGGFGYFGENCAVLSGAANGKWFDKRCRDQLPYICQFGIV |
| 3.3 | 105-08-1C4 ATRIMER (designed binder, Homotrimer of the given chain (ATRIMER complex).) EPPTQKPKKIVNAKKDVVNTKMFEELKSRLDTLAQEVALLKEQQALQTVCLKGTKVHMKCFLAFTQTKTFHEASEDCISRGGTLSTPQTGSENDALYEYLRQSVGNEAEIWLGLNGSTLTDTWVDMTGARIAYKNWETEITAQPDGGWGYFGENCAVLSGAANGKWFDKRCRDQLPYICQFGIV |
| 4.3 | 105-08-1A10 ATRIMER (designed binder, Forms a homotrimer (ATRIMER) through the tetranectin coiled coil; one protomer is given., not shown: C-terminal tag) EPPTQKPKKIVNAKKDVVNTKMFEELKSRLDTLAQEVALLKEQQALQTVCLKGTKVHMKCFLAFTQTKTFHEASEDCISRGGTLSTPQTGSENDALYEYLRQSVGNEAEIWLGLNGSSITDTWVDMTGARIAYKNWETEITAQPDGGWGYFGENCAVLSGAANGKWFDKRCRDQLPYICQFGIV |
| 4.1 | 105-08-1B7 ATRIMER (designed binder, Forms a homotrimer (ATRIMER) through the tetranectin coiled coil; one protomer is given., not shown: C-terminal tag) EPPTQKPKKIVNAKKDVVNTKMFEELKSRLDTLAQEVALLKEQQALQTVCLKGTKVHMKCFLAFTQTKTFHEASEDCISRGGTLSTPQTGSENDALYEYLRQSVGNEAEIWLGLNGSPRTDTWVDMTGARIAYKNWETEITAQPDGGFGYFGENCAVLSGAANGKWFDKRCRDQLPYICQFGIV |
| 8.7 | 101-51-1A10 ATRIMER (designed binder, ATRIMER is a homotrimer; one protomer is given., not shown: C-terminal purification tag: Myc/His6 (pANA4) or HA-StrepII (pANA10)) EPPTQKPKKIVNAKKDVVNTKMFEELKSRLDTLAQEVALLKEQQALQTVCLKGTKVHMKCFLAFTQTKTFHEASEDCISRGGTLSTPQTGSENDALYEYLRQSVGNEAEIWLGLNGSALTNTWVDMTGARIAYKNWEHPLPPQPSGGFGYFGENCAVLSGAANGKWFDKRCRDQLPYICQFGIV |
| 0.3 | 101-54-4B6 ATRIMER (designed binder) EPPTQKPKKIVNAKKDVVNTKMFEELKSRLDTLAQEVALLKEQQALQTVCLKGTKVHMKCFLAFTQTKTFHEASEDCISRGGTLSTPQTGSENDALYEYLRQSVGNEAEIWLGLNGSALTNTWVDMTGARIAYKNWEPPGPHHPMGGFGVFGENCAVLSGAANGKWFDKRCRDQLPYICQFGIV |
| 5 | 105-08-1C10 ATRIMER (designed binder) EPPTQKPKKIVNAKKDVVNTKMFEELKSRLDTLAQEVALLKEQQALQTVCLKGTKVHMKCFLAFTQTKTFHEASEDCISRGGTLSTPQTGSENDALYEYLRQSVGNEAEIWLGLNGSSVTNTWVDMTGARIAYKNWETEITAQPDGGWGYFGENCAVLSGAANGKWFDKRCRDQLPYICQFGIV |
| 2.9 | 105-08-1A7 ATRIMER (designed binder, Homotrimer of the given chain (ATRIMER complex).) EPPTQKPKKIVNAKKDVVNTKMFEELKSRLDTLAQEVALLKEQQALQTVCLKGTKVHMKCFLAFTQTKTFHEASEDCISRGGTLSTPQTGSENDALYEYLRQSVGNEAEIWLGLNGSVRTNTWVDMTGARIAYKNWETEITAQPDGGFGYFGENCAVLSGAANGKWFDKRCRDQLPYICQFGIV |
| 2.6 | 101-51-1A6 ATRIMER (designed binder, ATRIMER is a homotrimer; one protomer is given., not shown: C-terminal purification tag: Myc/His6 (pANA4) or HA-StrepII (pANA10)) EPPTQKPKKIVNAKKDVVNTKMFEELKSRLDTLAQEVALLKEQQALQTVCLKGTKVHMKCFLAFTQTKTFHEASEDCISRGGTLSTPQTGSENDALYEYLRQSVGNEAEIWLGLNGSALTNTWVDMTGARIAYKNWENNLSAQPRGGFGYFGENCAVLSGAANGKWFDKRCRDQLPYICQFGIV |
| 2 | 105-08-1C6 ATRIMER (designed binder) EPPTQKPKKIVNAKKDVVNTKMFEELKSRLDTLAQEVALLKEQQALQTVCLKGTKVHMKCFLAFTQTKTFHEASEDCISRGGTLSTPQTGSENDALYEYLRQSVGNEAEIWLGLNGSALTDTWVDMTGARIAYKNWETEITAQPDGGFGYFGENCAVLSGAANGKWFDKRCRDQLPYICQFGIV |
| 2.8 | 105-08-1C11 ATRIMER (designed binder, not shown: C-terminal tag: His/Myc (pANA4) or HA-StrepII (pANA10)) EPPTQKPKKIVNAKKDVVNTKMFEELKSRLDTLAQEVALLKEQQALQTVCLKGTKVHMKCFLAFTQTKTFHEASEDCISRGGTLSTPQTGSENDALYEYLRQSVGNEAEIWLGLNGSSRTDTWVDMTGARIAYKNWETEITAQPDGGFGYFGENCAVLSGAANGKWFDKRCRDQLPYICQFGIV |
| 1.6 | 105-08-1A4 ATRIMER (designed binder) EPPTQKPKKIVNAKKDVVNTKMFEELKSRLDTLAQEVALLKEQQALQTVCLKGTKVHMKCFLAFTQTKTFHEASEDCISRGGTLSTPQTGSENDALYEYLRQSVGNEAEIWLGLNGSAVTNTWVDMTGARIAYKNWETEITAQPDGGFGYFGENCAVLSGAANGKWFDKRCRDQLPYICQFGIV |
| 3.6 | 105-08-1C3 ATRIMER (designed binder) EPPTQKPKKIVNAKKDVVNTKMFEELKSRLDTLAQEVALLKEQQALQTVCLKGTKVHMKCFLAFTQTKTFHEASEDCISRGGTLSTPQTGSENDALYEYLRQSVGNEAEIWLGLNGSQLTDTWVDMTGARIAYKNWETEITAQPDGGWGYFGENCAVLSGAANGKWFDKRCRDQLPYICQFGIV |
| 7.4 | 105-08-1C9 ATRIMER (designed binder, not shown: C-terminal tag: His/Myc (pANA4) or HA-StrepII (pANA10)) EPPTQKPKKIVNAKKDVVNTKMFEELKSRLDTLAQEVALLKEQQALQTVCLKGTKVHMKCFLAFTQTKTFHEASEDCISRGGTLSTPQTGSENDALYEYLRQSVGNEAEIWLGLNGSTLTDTWVDMTGARIAYKNWETEITAQPDGGFGYFGENCAVLSGAANGKWFDKRCRDQLPYICQFGIV |
| 4.1 | 105-08-1C2 ATRIMER (designed binder, Forms a homotrimer (ATRIMER) through the tetranectin coiled coil; one protomer is given., not shown: C-terminal tag) EPPTQKPKKIVNAKKDVVNTKMFEELKSRLDTLAQEVALLKEQQALQTVCLKGTKVHMKCFLAFTQTKTFHEASEDCISRGGTLSTPQTGSENDALYEYLRQSVGNEAEIWLGLNGSRATDTWVDMTGARIAYKNWETEITAQPDGGFGYFGENCAVLSGAANGKWFDKRCRDQLPYICQFGIV |
| 3.3 | 105-08-1B1 ATRIMER (designed binder, Homotrimer of the given chain (ATRIMER complex).) EPPTQKPKKIVNAKKDVVNTKMFEELKSRLDTLAQEVALLKEQQALQTVCLKGTKVHMKCFLAFTQTKTFHEASEDCISRGGTLSTPQTGSENDALYEYLRQSVGNEAEIWLGLNGSPRTQTWVDMTGARIAYKNWETEITAQPDGGFGYFGENCAVLSGAANGKWFDKRCRDQLPYICQFGIV |
| 4.7 | 105-08-1B10 ATRIMER (designed binder) EPPTQKPKKIVNAKKDVVNTKMFEELKSRLDTLAQEVALLKEQQALQTVCLKGTKVHMKCFLAFTQTKTFHEASEDCISRGGTLSTPQTGSENDALYEYLRQSVGNEAEIWLGLNGSRHTDTWVDMTGARIAYKNWETEITAQPDGGFGYFGENCAVLSGAANGKWFDKRCRDQLPYICQFGIV |
| 1 | 101-54-4B3 ATRIMER (designed binder) EPPTQKPKKIVNAKKDVVNTKMFEELKSRLDTLAQEVALLKEQQALQTVCLKGTKVHMKCFLAFTQTKTFHEASEDCISRGGTLSTPQTGSENDALYEYLRQSVGNEAEIWLGLNGSALTNTWVDMTGARIAYKNWELPPPGHPQGGFGVFGENCAVLSGAANGKWFDKRCRDQLPYICQFGIV |
| 0.6 | 101-80-5E8 ATRIMER (designed binder) EPPTQKPKKIVNAKKDVVNTKMFEELKSRLDTLAQEVALLKEQQALQTVCLKGTKVHMKCFLAFTQTKTFHEASEDCISRGGTLSTPQTGSENDALYEYLRQSVGNEAEIWLGLNGSALTNTWVDMTGARIAYKNWEPPEPLHPMGGFGVFGENCAVLSGAANGKWFDKRCRDQLPYICQFGIV |
| 1.6 | 105-08-1A8 ATRIMER (designed binder, not shown: C-terminal tag: Myc/His6 (pANA4) or HA-StrepII (pANA10); A Ser left at the ompA junction may also sit at the N-terminus) EPPTQKPKKIVNAKKDVVNTKMFEELKSRLDTLAQEVALLKEQQALQTVCLKGTKVHMKCFLAFTQTKTFHEASEDCISRGGTLSTPQTGSENDALYEYLRQSVGNEAEIWLGLNGSPRTNTWVDMTGARIAYKNWETEITAQPDGGFGVFGENCAVLSGAANGKWFDKRCRDQLPYICQFGIV |
